± gives the half width of the 95% confidence interval.
Experiments:
[1] = folding stability dG unfold from chymotrypsin proteolysis; higher = more stable
In short: (§1)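 Mini-proteins designed to be under 80 residues and free of cysteine were carried in a PA-tagged cDNA display construct and digested with trypsin and with chymotrypsin. Each protease was applied at 11 threefold-diluted concentrations, alongside a no-protease condition, before sequencing. K50 came from Bayesian fitting of the sequencing counts, and unfolding free energy was obtained by comparing it with a sequence-predicted unfolded-state K50 and a shared folded-state K50, for each protease separately or for both together. Designs were retained only if their AlphaFold2 dimer inter-PAE exceeded 15.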

[2] = folding stability dG unfold (combined trypsin and chymotrypsin); higher = more stable
In short: as §1

In the case of “SAGGSAGGSAGGSSTITLDPANPTVVTDPATGVPTTGVSLAELEKLGMKPAGPDAYVVLSAGGSAGGSAGGS [r4_306_JUSTAS]”, the “folding stability dG unfold” value [1] is reported as 0.289 ± 0.18 kcal/mol and the “folding stability dG unfold” value [2] is reported as under -1 kcal/mol.
For “SAGGSAGGSAGGSSVYTSPSKPIAITSRTLVPESNLVRVEAVDPSGAPIEGIIPPSATLGSAGGSAGGSAGG [r7_427_JUSTAS]”, the “folding stability dG unfold” value [1] was -0.114 ± 0.27 kcal/mol and the “folding stability dG unfold” value [2] was under -1 kcal/mol.
For “SAGGSAGGSAGGSTVTVTSEEEAQEAREALAAERAAAEPGAEPPEAFPVEVEVVPPELRSAGGSAGGSAGGS [r4_498_JUSTAS]”, the “folding stability dG unfold” value [1] was 0.633 ± 0.047 kcal/mol and the “folding stability dG unfold” value [2] was 0.0161 ± 0.22 kcal/mol.
For “SAGGSAGGSAGGVRIPPGHWKHRLGFPNGKENEFNIPPGAPIEIPPNADDVKIQEIEPVPSAGGSAGGSAGG [r7_542_TrROS]”, the “folding stability dG unfold” value [1] was -0.251 ± 0.36 kcal/mol and the “folding stability dG unfold” value [2] was under -1 kcal/mol.
In the case of “SAGGSAGGSAGGVTVSPEEYLATFPPGLTLRDSAGNLHELGDRAPVDPAAPVTLLSPEELSAGGSAGGSAGG [r7_507_JUSTAS]”, the “folding stability dG unfold” value [1] is reported as 0.464 ± 0.039 kcal/mol and the “folding stability dG unfold” value [2] is reported as -0.18 ± 0.12 kcal/mol.
With “SAGGSAGGSAGKKKVLILGGDAVATAKELKKLGEDVEVEVLESGEDLEEHLKNYDLVLSGSAGGSAGGSAGG [r17_225_TrMRF]” the “folding stability dG unfold” value [1] was 0.344 ± 0.14 kcal/mol and the “folding stability dG unfold” value [2] was 0.106 ± 0.27 kcal/mol.
With “SAGGSAGGSAGKKTLYVIKIELSDEQLKEAKKEGKPLKLKAEIVEVKPVKVEVKKEYKKESAGGSAGGSAGG [r11_26_TrROS_Hall]” the “folding stability dG unfold” value [1] was 0.586 ± 0.31 kcal/mol and the “folding stability dG unfold” value [2] was -0.167 ± 0.56 kcal/mol.
In the case of “SAGGSAGGSAGMETRLIAVLEDGEAVFEDGGTLITVPADEDVADIPDGGGLGTIYIPKDGSAGGSAGGSAGG [r11_647_TrMRF]”, the “folding stability dG unfold” value [1] is reported as 0.53 ± 0.036 kcal/mol and the “folding stability dG unfold” value [2] is reported as -0.0625 ± 0.17 kcal/mol.
For “SAGGSAGGSAGMGSTSTSTSITPTPEGRIVVDTTTTFTDPGGVPVGSTTTTTTLPPGAAASAGGSAGGSAGG [r11_898_JUSTAS]”, the “folding stability dG unfold” value [1] was 0.242 ± 0.066 kcal/mol and the “folding stability dG unfold” value [2] was -0.279 ± 0.16 kcal/mol.
For “SAGGSAGGSAGMKDNLVVTRTYTLPDDTVLVTRATFDSNPELVTVDVTEVPLSDVAPDAVSAGGSAGGSAGG [r11_493_TrMRF]”, the “folding stability dG unfold” value [1] was 0.514 ± 0.11 kcal/mol and the “folding stability dG unfold” value [2] was -0.0312 ± 0.14 kcal/mol.
With “SAGGSAGGSAGMKVIVLPVPPNADRVRITYEKGPTLEIEAREDEPVVIVAPENEFTVEVDSAGGSAGGSAGG [r11_52_TrMRF]” the “folding stability dG unfold” value [1] was -0.383 ± 0.28 kcal/mol and the “folding stability dG unfold” value [2] was under -1 kcal/mol.
In the case of “SAGGSAGGSAGMLSVTELSTEEKGSLVTTTTRATVGSTTVTTTTTTFVPRSTALLNPDRGSAGGSAGGSAGG [r11_213_JUSTAS]”, the “folding stability dG unfold” value [1] is reported as 0.55 ± 0.089 kcal/mol and the “folding stability dG unfold” value [2] is reported as -0.0509 ± 0.48 kcal/mol.
With “SAGGSAGGSAGMRLLTEEIVVEQFFYETGETRLTVLTKEILVVPPRPVPVPLPEGGLRLLSAGGSAGGSAGG [r11_307_JUSTAS]” the “folding stability dG unfold” value [1] was 0.925 ± 0.11 kcal/mol and the “folding stability dG unfold” value [2] was 0.184 ± 0.13 kcal/mol.
With “SAGGSAGGSAGMVIPSTSPEEAVEKLRELVEKRGDFLVDVKPTEVHPDGTVVIETKKKPLSAGGSAGGSAGG [r17_430_JUSTAS]” the “folding stability dG unfold” value [1] was 0.21 ± 0.09 kcal/mol and the “folding stability dG unfold” value [2] was -0.269 ± 0.21 kcal/mol.
With “SAGGSAGGSAGMVTEESLEIEPGKGLIVRTVTDRRESGIVTETEKTPVSEAEREAIRKALSAGGSAGGSAGG [r11_47_JUSTAS]” the “folding stability dG unfold” value [1] was 0.0861 ± 0.056 kcal/mol and the “folding stability dG unfold” value [2] was -0.201 ± 0.11 kcal/mol.
With “SAGGSAGGSAGNISSLPPTPITGSSLKRFVVKRPDGTEEEVTLEITYYPETGKEIISTIKSAGGSAGGSAGG [r11_1024_JUSTAS]” the “folding stability dG unfold” value [1] was 0.107 ± 0.31 kcal/mol and the “folding stability dG unfold” value [2] was -0.0512 ± 0.21 kcal/mol.
In the case of “SAGGSAGGSAGPDVEVVIIPVDPETGEPLDALPIPIPSPEGGLVDEIVKAIPPDRYRVLASAGGSAGGSAGG [r17_339_TrMRF]”, the “folding stability dG unfold” value [1] is reported as -0.336 ± 0.45 kcal/mol and the “folding stability dG unfold” value [2] is reported as under -1 kcal/mol.
In the case of “SAGGSAGGSAGPMYKLKAELNNKPFEVMINPDMPPDDQIYIRDPGEWIEFNIENMKVEPVSAGGSAGGSAGG [r11_247_TrROS]”, the “folding stability dG unfold” value [1] is reported as 0.298 ± 0.21 kcal/mol and the “folding stability dG unfold” value [2] is reported as -0.0971 ± 0.14 kcal/mol.
With “SAGGSAGGSAGPRRFMFQIPADEVKLEFPGGAKVTDVEEDPDGYRRVMIEIPPGADPELKSAGGSAGGSAGG [r17_48_TrROS]” the “folding stability dG unfold” value [1] was 0.142 ± 0.32 kcal/mol and the “folding stability dG unfold” value [2] was -0.129 ± 0.2 kcal/mol.
In the case of “SAGGSAGGSAGQPKPLPGGGEVKVEVYPPNNGKKKKFEIPPNEPDWIKELAKPGYSVHIESAGGSAGGSAGG [r11_1006_TrROS]”, the “folding stability dG unfold” value [1] is reported as 0.0183 ± 0.089 kcal/mol and the “folding stability dG unfold” value [2] is reported as -0.677 ± 0.43 kcal/mol.
For “SAGGSAGGSAGSMDSLPMPQVTPKVVELNVPPEEAEKLKKELGAKEIKFSPEGKLIIYLESAGGSAGGSAGG [r11_64_JUSTAS]”, the “folding stability dG unfold” value [1] was -0.353 ± 0.078 kcal/mol and the “folding stability dG unfold” value [2] was -0.453 ± 0.2 kcal/mol.
With “SAGGSAGGSAGSMVEVTYEPDPATGGSRIVTTTRFPDRNTVTVTELDPNAGVPLETVEVESAGGSAGGSAGG [r11_676_JUSTAS]” the “folding stability dG unfold” value [1] was -0.16 ± 0.029 kcal/mol and the “folding stability dG unfold” value [2] was -0.433 ± 0.089 kcal/mol.
In the case of “SAGGSAGGSAGTATLELTVGGKKATATVEPDPDSPAPVVTVKVGDKPVVLNPDGTWTPADSAGGSAGGSAGG [r11_732_TrMRF]”, the “folding stability dG unfold” value [1] is reported as -0.908 ± 0.2 kcal/mol and the “folding stability dG unfold” value [2] is reported as under -1 kcal/mol.
For “SAGGSAGGSAGVKRIKDVRNPNGNKIRDVEVEEENDPNGNKYLTIKARHKNGNEQEHTLPSAGGSAGGSAGG [r11_810_TrROS]”, the “folding stability dG unfold” value [1] was 0.568 ± 0.25 kcal/mol and the “folding stability dG unfold” value [2] was -0.18 ± 0.75 kcal/mol.
In the case of “SAGGSAGGSAGVRIPPGYLVRIKFPGNGEREIPIDTPEIEIPGIENVTIEVYPLKKGEPISAGGSAGGSAGG [r11_43_TrROS]”, the “folding stability dG unfold” value [1] is reported as 0.553 ± 0.19 kcal/mol and the “folding stability dG unfold” value [2] is reported as 0.167 ± 0.2 kcal/mol.
For “SAGGSAGGSAGWNIEPKPEPERDPDGNPQPRMEIKIRVPPPTAEQAQEWAKENGLPVTVYSAGGSAGGSAGG [r17_114_TrROS]”, the “folding stability dG unfold” value [1] was -0.0462 ± 0.17 kcal/mol and the “folding stability dG unfold” value [2] was under -1 kcal/mol.
In the case of “SAGGSAGGSAILRIKLEHPKSGKPMTWVIPPEMNIEQIADMLMEQHPNAEIKDIEWVPPNQISAGGSAGGSA [r18_242_TrROS]”, the “folding stability dG unfold” value [1] is reported as 0.3 ± 0.12 kcal/mol and the “folding stability dG unfold” value [2] is reported as -0.0546 ± 0.097 kcal/mol.
For “SAGGSAGGSAKRTIFIPAEDLQKNPDNAEELAQTIAEEFNDNGKEIKIEQHPDGGVVIELKSAGGSAGGSAG [r3_75_TrROS]”, the “folding stability dG unfold” value [1] was -0.3 ± 0.1 kcal/mol and the “folding stability dG unfold” value [2] was under -1 kcal/mol.
With “SAGGSAGGSAKSALDQMKGQKFTFYHPGGEQPVPITIEPDKDDNFVVKFPNKKPYPMPIDDISAGGSAGGSA [r18_169_TrROS]” the “folding stability dG unfold” value [1] was -1.29 ± 0.81 kcal/mol and the “folding stability dG unfold” value [2] was under -1 kcal/mol.
With “SAGGSAGGSAMKLLETKVSRSLVPETGVVVTPVTTTTLGPGGKREVIEETEVRVLPPDAPPPSAGGSAGGSA [r18_95_JUSTAS]” the “folding stability dG unfold” value [1] was -0.625 ± 0.19 kcal/mol and the “folding stability dG unfold” value [2] was under -1 kcal/mol.
In the case of “SAGGSAGGSAMLTLRFELPDGSERELRLPGVTPEEAAALAAELARREGVARVEVYPPGVERSAGGSAGGSAG [r3_160_JUSTAS]”, the “folding stability dG unfold” value [1] is reported as 0.532 ± 0.26 kcal/mol and the “folding stability dG unfold” value [2] is reported as -0.823 ± 0.44 kcal/mol.
With “SAGGSAGGSAMPERRAAEAAAAPPPVPKVVITSPGSEEEARRIEEELRAAPGVEEVTVTVVPRLSAGGSAGG [r6_285_JUSTAS]” the “folding stability dG unfold” value [1] was 0.804 ± 0.045 kcal/mol and the “folding stability dG unfold” value [2] was 0.0774 ± 0.16 kcal/mol.
In the case of “SAGGSAGGSAMPLGVTTSTSTSLLPSNSRLVTETITTPGTTSTTTTLLTPPPGEVLETTTTSSAGGSAGGSA [r18_459_JUSTAS]”, the “folding stability dG unfold” value [1] is reported as 0.997 ± 0.027 kcal/mol and the “folding stability dG unfold” value [2] is reported as 0.526 ± 0.09 kcal/mol.
In the case of “SAGGSAGGSAPFENLPEDAKEVEITFDPSLSEEVRKALAEELKPRIEAQGIKYKFKIVPKSNLSAGGSAGGS [r12_456_JUSTAS]”, the “folding stability dG unfold” value [1] is reported as -0.448 ± 0.59 kcal/mol and the “folding stability dG unfold” value [2] is reported as under -1 kcal/mol.
For “SAGGSAGGSAPGKHKTIEINGPGDVEEAVDYAKDEMPPGKPIHIRFNDEPITIPAEDAKKISAGGSAGGSAG [r3_50_TrROS]”, the “folding stability dG unfold” value [1] was 0.445 ± 0.047 kcal/mol and the “folding stability dG unfold” value [2] was -0.0642 ± 0.22 kcal/mol.
With “SAGGSAGGSAPNIRAKIEPKPDPGGPKLTIDVEDPDNPELPAEEVAKALEEEFPPDKIEPVSAGGSAGGSAG [r3_226_TrROS]” the “folding stability dG unfold” value [1] was -0.7 ± 0.083 kcal/mol and the “folding stability dG unfold” value [2] was under -1 kcal/mol.
For “SAGGSAGGSAPRLVRVRGPDGGERVIPVPPDVLADRIPPDVPVRVPVVREDGRFRFRVERGSAGGSAGGSAG [r3_86_TrMRF]”, the “folding stability dG unfold” value [1] was -0.819 ± 0.88 kcal/mol and the “folding stability dG unfold” value [2] was under -1 kcal/mol.

— the supplement of paper PMC12764529
